# The supplement of paper PMC10126150
# ± gives the standard deviation of the averaged measurements.
# Test system: ATP
# Experiment: switch fluorescence ratio, 500 uM ATP over buffer (Cy3 cluster intensity, sum of 5 cycles each) (fold (ratio)); higher = stronger signal-on switching upon ATP binding; sequences stand for … in TCGTCGGCAGCGTCAGATGTGTATAAGAGACAGTTTTTTTTTTTTTTTTTTTTTTTTT…TC
# Conditions: aptamer strand: ATP DNA aptamer (quencher-CACCTGGGGGAGTATTGCGGAGGAAGG + anchor), 100 nM annealed; ATP concentration: 500 uM
# In short: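 The fluorescence ratio divides summed target-cycle Cy3 intensity by summed buffer-cycle Cy3 intensity for each cluster and is averaged per switch-domain sequence. Cy3-labelled switching-strand clusters on a modified Illumina MiSeq flow-cell were annealed to 100 nM quencher-labelled ATP aptamer, then imaged in selection buffer and again after 15 min with 500 uM ATP at 22 °C. Five such cycles were run, with NaOH stripping and re-annealing between them, and clusters outside 100-1000 RFU were excluded.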
# 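Further: ATP exposure 15 min at 22 °C before imaging.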
row,Sequence,switch fluorescence ratio
1,TTTGGTTTAC,1.01 ± 0.019
2,AGATGGGGAG,1.04 ± 0.064
3,TTGTTGCGGC,1.01 ± 0.042
4,TGGGTGTTGT,1.01 ± 0.034
5,AACCTTTCTT,1.46 ± 0.041
6,TTTAGAAAGG,1 ± 0.025
7,CCAGTTACGG,1.032 ± 0.01
8,TTAAGTTCGG,1.02 ± 0.013
9,GGCGCCATGG,0.986 ± 0.055
10,GAAGGGGGCA,0.9882 ± 0.001
11,ATTGTGGGTC,1.04 ± 0.02
12,TTTCGCTTTT,1.03 ± 0.044
13,TTGAAATGGT,0.987 ± 0.018
14,AAACGAACAT,1.217 ± 0.011
15,AATTATCTCG,1.01 ± 0.018
16,GCGTATATAA,1.04 ± 0.044
17,GATGAGGTAT,0.9899 ± 0.002
18,TTAATAAGGT,1.01 ± 0.035
19,AAGTGTCAGT,0.977 ± 0.065
20,TGATAGGGTT,0.985 ± 0.014
21,GAGGCTTGTT,0.981 ± 0.01
22,TGAACTAATT,1.01 ± 0.0099
23,CTTGCCTGGG,0.96 ± 0.028
24,GGTGGAGAGG,0.929 ± 0.018
25,GAGGTCATTG,0.9996 ± 0.0018

row,Sequence,switch fluorescence ratio
1,GTTAATGGGG,0.986 ± 0.054
2,TATTTTCACT,1.05 ± 0.11
3,GCGTTTCTAG,0.992 ± 0.028
4,TTAGAAATGT,1.42 ± 0.84
5,ATGTGTAGTT,0.992 ± 0.019
6,TGTGTTCTGG,0.986 ± 0.011
7,CTGTATATCT,1.02 ± 0.022
8,ATCAGGGGAG,1 ± 0.018
9,CTGCGGGGAG,1.03 ± 0.037
10,TCGGTTTTAA,1.01 ± 0.036
11,GCCGATAGGG,0.9975 ± 0.0039
12,CAGGGGCTTC,1.02 ± 0.018
13,AGCGTTCAGC,0.9849 ± 0.0026
14,GTAATGTATC,1.03 ± 0.046
15,GGGTTGAAGA,0.971 ± 0.04
16,ATCACGGGGA,1.01 ± 0.032
17,CGTAAAGCCT,0.991 ± 0.02
18,GACGAGCCAG,1.002 ± 0.0066
19,CTGTCTTATG,1 ± 0.068
20,CCCGGGGTGT,3.55 ± 0.15
21,ATTTTGCAGG,0.997 ± 0.046
22,AGTTAACATG,0.978 ± 0.016
23,ACGGGAAAGT,1.06 ± 0.089
24,CTATCGGGAC,1.09 ± 0.026
25,TATTATACCT,1.29 ± 0.053

row,Sequence,switch fluorescence ratio
1,CGTATAAGTT,0.937 ± 0.018
2,TATTGGTCGG,0.993 ± 0.036
3,GGGTATTTAG,0.983 ± 0.033
4,TCGTTGACGT,0.985 ± 0.04
5,TGGGGGCACA,1.0343 ± 0.00026
6,CTTAGTCAGC,1.06 ± 0.099
7,TTCAATTGTG,0.9958 ± 0.0053
8,GCTCGTTTAG,1.01 ± 0.02
9,TAACCGGGGG,1.67 ± 1.2
10,TATGCTAACT,1 ± 0.051
11,GAAGAGTTTG,0.9776 ± 0.0069
12,ATGTAAGGGG,0.9951 ± 0.0039
13,GCCACAGTAC,3.04 ± 0.098
14,TTGCAACTTT,1.12 ± 0.17
15,GCAATTGAGT,0.997 ± 0.036
16,AAGTTGCTGT,1.02 ± 0.063
17,TTCTAGCCTT,1.043 ± 0.00045
18,TCTGCGTCTG,1.16 ± 0.2
19,TTGTTACTTT,1 ± 0.017
20,AGACGGTAGC,1.01 ± 0.026
21,CGGGAGTCAG,1 ± 0.021
22,TTTTTTCCAC,1.01 ± 0.028
23,AACTAAGTGG,0.967 ± 0.017
24,CTGTGGACCG,0.974 ± 0.017
25,ATTTATCCAC,1.01 ± 0.046

row,Sequence,switch fluorescence ratio
1,TCGAATGGGC,0.98 ± 0.037
2,TGTGGGGCTT,1.01 ± 0.035
3,AATCATGTTG,0.981 ± 0.033
4,ATCTGCCTGC,1.074 ± 0.009
5,TGGCGGAATT,1.02 ± 0.02
6,AAAAAATGTG,0.99 ± 0.031
7,TGGGTATCGT,0.977 ± 0.029
8,CTTTGGGGGC,0.9593 ± 0.0087
9,AGGGTACTTA,1.05 ± 0.028
10,TGGTTGGAGT,1.006 ± 0.0035
11,TGTTCGGAAA,1.01 ± 0.014
12,TCGTTTTTTT,1.07 ± 0.13
13,TATTTCGGGT,1.01 ± 0.068
14,GGGGTGCCCA,0.984 ± 0.044
15,AAGCGGTATC,1.03 ± 0.021
16,GGTTTATTTT,0.9946 ± 0.0013
17,CGTAGCTAGA,1.89 ± 0.047
18,AGATTGTGCA,0.963 ± 0.011
19,TATCGTCTGG,0.981 ± 0.015
20,AATGGTACGA,1 ± 0.035
21,TCGTGTAGGG,0.984 ± 0.014
22,ATATAGGCTG,1.01 ± 0.018
23,ACTCAATTAT,1.02 ± 0.042
24,AGTATTGCGA,0.974 ± 0.01
25,TTACATTGTT,1.06 ± 0.11

row,Sequence,switch fluorescence ratio
1,TAGAAATTCG,1.28 ± 0.5
2,AACTATTAGA,0.952 ± 0.018
3,AAGTTGTAAT,1.014 ± 0.0013
4,TTATATCTTG,1.0191 ± 0.00086
5,TATCTTGGGC,0.996 ± 0.083
6,GTTGGGAGGT,0.982 ± 0.015
7,TTAATCTGCG,1.01 ± 0.032
8,TCGTCAGCGA,2.77 ± 0.06
9,ACGGTAGTTG,0.9851 ± 0.009
10,CTTGTATCGG,1 ± 0.056
11,TTGGTACATT,0.99163 ± 8.4e-05
12,ACTGATTTTA,1.01 ± 0.056
13,CTAGTTAAGT,0.991 ± 0.073
14,AACCGCGGTG,0.984 ± 0.011
15,GAATTGAGGG,0.97 ± 0.054
16,AAAGTTTTCG,0.977 ± 0.026
17,ATGGCTTAAG,1.006 ± 0.0055
18,GTGGGAAGTC,0.965 ± 0.04
19,TCGGGGCTAG,0.989 ± 0.025
20,GTTGTAGCTC,1 ± 0.023
21,TTTAGTTTGG,1 ± 0.031
22,TGTTCCGTCT,0.9732 ± 0.0095
23,CGTTGAGTTG,0.986 ± 0.032
24,GATTTTTTCG,0.997 ± 0.01
25,GGGTCTGTGG,0.9812 ± 0.0062

row,Sequence,switch fluorescence ratio
1,CAGCAAATGG,1.47 ± 0.26
2,TTTTAGAGCT,1.02 ± 0.018
3,ACGGGGATCA,0.981 ± 0.045
4,TCGTACACGT,0.978 ± 0.015
5,GGGAGTAGCC,1.01 ± 0.059
6,TCGTGGGGAT,1 ± 0.021
7,CGTTTGGACA,0.9893 ± 0.0051
8,GGGGTTAATT,1 ± 0.026
9,GGTGGGGGCC,1.03 ± 0.011
10,ACTACAGGCT,1.026 ± 0.0035
11,GGCTATTTTC,0.991 ± 0.051
12,TGATAAACGG,1 ± 0.019
13,GCAGGGGCCC,1.02 ± 0.027
14,CACATCACTT,1.43 ± 0.27
15,AACTAGACCT,1.42 ± 0.019
16,GCGATTCCAG,1.02 ± 0.0065
17,TATGATGCTC,0.998 ± 0.043
18,AGACTCCACC,1.398 ± 0.0081
19,GAGGGGTAGC,0.988 ± 0.016
20,TCCGCGGGTG,1.61 ± 0.82
21,TCACTATAGG,1.02 ± 0.036
22,TTGCTGTTGT,1.01 ± 0.022
23,ACGAGCTAGG,1.13 ± 0.026
24,AAGTTCATAT,0.965 ± 0.015
25,CTTATTCGCC,1.05 ± 0.099

row,Sequence,switch fluorescence ratio
1,CAGGGGGGTG,1.01 ± 0.051
2,ACATAGAAAA,1.01 ± 0.044
3,GCTCCTTAGG,1.12 ± 0.048
4,GGTGTCGGTC,0.956 ± 0.049
5,TGAGAGTTCA,1.006 ± 0.0032
6,TTTTTCGGAT,1.05 ± 0.14
7,TTTGAGTGAC,1.01 ± 0.031
8,GGGGGTTTGT,0.983 ± 0.011
9,ATTTGGTATT,0.992 ± 0.041
10,TCCTCGGGGC,1.6 ± 0.095
11,CCAGAGGAGG,1.01 ± 0.076
12,TCTCAGGGGA,1.16 ± 0.11
13,CCTTTGAGAT,1.03 ± 0.022
14,CGGGCTTGG,1.03 ± 0.021
15,GGTATAGTAG,0.99304 ± 0.00031
16,ATCCGTTGCT,1.01 ± 0.048
17,CGGCAGGCAG,1.04 ± 0.13
18,CCTTATTAGT,0.984 ± 0.012
19,TCTGGGCTTT,1.07 ± 0.1
20,TGGGGGAACA,0.989 ± 0.018
21,TTTAAGGCAG,1.005 ± 0.0023
22,TGTTTTTTTG,0.983 ± 0.041
23,TGGCGGGATA,1.009 ± 0.0013
24,ACTTTTTGTG,1 ± 0.013
25,AAAGAATTGG,0.975 ± 0.045

row,Sequence,switch fluorescence ratio
1,AGGAGGGGCG,0.983 ± 0.0099
2,AGGCCAGTTG,1.02 ± 0.012
3,CCGAAGGGGT,1.18 ± 0.16
4,ATTGGGAGC,0.956 ± 0.015
5,GGGGTGCAGT,0.992 ± 0.022
6,CATATTATGA,0.987 ± 0.012
7,ATTTGTTGGA,0.989 ± 0.04
8,GACTTACCAC,1.17 ± 0.052
9,CTGATTTAGC,1.05 ± 0.043
10,AGGTTTAGTT,0.993 ± 0.0065
11,GAAATGTATT,1.04 ± 0.063
12,CGCTTTTTTT,1.01 ± 0.025
13,AAGGGGCACA,1.0522 ± 0.00079
14,GTGATTTGCG,1.008 ± 0.0036
15,TTATATCAAT,0.9999 ± 0.0041
16,GGTTACGGGT,0.994 ± 0.057
17,TAGTTGTAAG,0.994 ± 0.02
18,ATATTGACCG,1.03 ± 0.022
19,CGTCTATTTG,0.993 ± 0.023
20,AGTCCGATGT,1.04 ± 0.038
21,AGGGTAACTT,1.01 ± 0.023
22,TTTATTTTTA,0.986 ± 0.019
23,TCGAGTCTTT,0.998 ± 0.015
24,ATTATAAAAC,1.03 ± 0.045
25,CTAGTGGCTG,1.02 ± 0.03
